Data published in doi:10.1101/2024.07.01.601590.

Molecular target: Fluorescently labelled Asgard ESCRT-IIIB (Heimdallarchaeota archaeon AB_125), full length (Heimdallarchaeota archaeon AB_125)
Assay: TIRF microscopy on supported lipid bilayers

Substance | time to reach plateau [s]
Fluorescently labelled Asgard ESCRT-IIIA (Heimdallarchaeota archaeon AB_125), full length (natural protein) | 160
Fluorescently labelled Asgard ESCRT-IIIB (Heimdallarchaeota archaeon AB_125), full length (natural protein) | > 1000
